From US20230287362A1 (REGENTS OF THE UNIVERSITY OF COLORADO A BODY CORPORATE, published 2023)
Ends that are not written are not given here.

Columns and labels:
[1] = biological target: T1, E. cloacae Cap2 E1 domain, residues 363-600, C548A (Enterobacter cloacae UCI 50, UniProt P0DX82 363-600); assay: X-ray crystallography of a fusion construct, 2.11 A
T1 construct: also called Cap2 E1 (of Cap2 E1-CD-NTase: AMP, PDB 7TSQ)

[2] = biological target: T2, E. cloacae Cap2 E1 domain, residues 374-600, C548A (Enterobacter cloacae UCI 50, UniProt P0DX82 374-600); assay: X-ray crystallography of a fusion construct, 1.77 A
T2 construct: also called Cap2 E1 (of Cp2 E1-CD-NTase Apo, PDB 7TSX)

[3] = biological target: T3, E. cloacae Cap2 C109A/C548A (catalytically dead) (Enterobacter cloacae UCI 50, UniProt P0DX82 1-600); assay: co-purified stoichiometric complex, cryo-EM
T3 construct: also called C.D. Cap2; Cap2(C548A/C109A)

Binder | binding result [1] | binding result [2] | binding result [3]
KPAEPQKTGRFA (also: C terminus conjugated to AMP in ATP-bound structure, unmodified in apo structure) [E. cloacae CD-NTase C terminus, residues 370-381] | binds | binds | 
E. cloacae CD-NTase with an N-terminal His6-tag (enzyme, C terminus conjugated to AMP in the cryo-EM structure, also called His6-CD-NTase; ec cdnD02; not shown: N-terminal His6-TEV cleavage site tag of vector 2-BT) MELQPQFNEFLANIRPTDTQKEDWKSGARTLRERLKNFEPLKEIVVSTFLQGSIRRSTAIRPLGDKRPDVDIVVVTNLDHTRMSPTDAMDLFIPFLEKYYPGKWETQGRSFGITLSYVELDLVITAIPESGAEKSHLEQLYKSESVLTVNSLEEQTDWRLNKSWTPNTGWLSESNSAQVEDAPASEWKAHPLVLPDREKNEWGRTHPLAQIRWTAEKNRLCNGHYINLVRAVKWWRQQNSEDLPKYPKGYPLEHLIGNALDNGTTSMAQGLVQLMDTFLSRWAAIYNQKSKPWLSDHGVAEHDVMARLTAEDFCSFYEGIASAAEIARNALASEEPQESAQLWRQLFGSKFPLPGPQGGDRNGGFTTPSKPAEPQKTGRFA |  |  | binds
